Data taken from patent US20170368138A1 (published 2017).

Target: U87MG
Assay: flow cytometry, cell binding; human U87MG cells

B1: NOD201M (Fc fusion)
chain: GCPRPRGDNPPLTCSQDSDCLAGCVCGPNGFCGEPRVPITQNPCPPLKECPPCAAPDLLGGPSVFIFPPKIKDVLMISLSPMVTCVVVDVSEDDPDVQISWFVNNVEVHTAQTQTHREDYNSTLRVVSALPIQHQDWMSGKEFKCKVNNRALPSPIEKTISKPRGPVRAPQVYVLPPPAEEMTKKEFSLTCMITGFLPAEIAVDWTSNGRTEQNYKNTATVLDSDGSYFMYSKLRVQKSTWERGSLFACSVVHEGLHNHLTTKTISRSLG
For B1, the Kd was 700 pM.
